T1: USP19 cloned in-frame into pACT plasmid (UniProt O94966 1-1318)
T1 sequence (looked up): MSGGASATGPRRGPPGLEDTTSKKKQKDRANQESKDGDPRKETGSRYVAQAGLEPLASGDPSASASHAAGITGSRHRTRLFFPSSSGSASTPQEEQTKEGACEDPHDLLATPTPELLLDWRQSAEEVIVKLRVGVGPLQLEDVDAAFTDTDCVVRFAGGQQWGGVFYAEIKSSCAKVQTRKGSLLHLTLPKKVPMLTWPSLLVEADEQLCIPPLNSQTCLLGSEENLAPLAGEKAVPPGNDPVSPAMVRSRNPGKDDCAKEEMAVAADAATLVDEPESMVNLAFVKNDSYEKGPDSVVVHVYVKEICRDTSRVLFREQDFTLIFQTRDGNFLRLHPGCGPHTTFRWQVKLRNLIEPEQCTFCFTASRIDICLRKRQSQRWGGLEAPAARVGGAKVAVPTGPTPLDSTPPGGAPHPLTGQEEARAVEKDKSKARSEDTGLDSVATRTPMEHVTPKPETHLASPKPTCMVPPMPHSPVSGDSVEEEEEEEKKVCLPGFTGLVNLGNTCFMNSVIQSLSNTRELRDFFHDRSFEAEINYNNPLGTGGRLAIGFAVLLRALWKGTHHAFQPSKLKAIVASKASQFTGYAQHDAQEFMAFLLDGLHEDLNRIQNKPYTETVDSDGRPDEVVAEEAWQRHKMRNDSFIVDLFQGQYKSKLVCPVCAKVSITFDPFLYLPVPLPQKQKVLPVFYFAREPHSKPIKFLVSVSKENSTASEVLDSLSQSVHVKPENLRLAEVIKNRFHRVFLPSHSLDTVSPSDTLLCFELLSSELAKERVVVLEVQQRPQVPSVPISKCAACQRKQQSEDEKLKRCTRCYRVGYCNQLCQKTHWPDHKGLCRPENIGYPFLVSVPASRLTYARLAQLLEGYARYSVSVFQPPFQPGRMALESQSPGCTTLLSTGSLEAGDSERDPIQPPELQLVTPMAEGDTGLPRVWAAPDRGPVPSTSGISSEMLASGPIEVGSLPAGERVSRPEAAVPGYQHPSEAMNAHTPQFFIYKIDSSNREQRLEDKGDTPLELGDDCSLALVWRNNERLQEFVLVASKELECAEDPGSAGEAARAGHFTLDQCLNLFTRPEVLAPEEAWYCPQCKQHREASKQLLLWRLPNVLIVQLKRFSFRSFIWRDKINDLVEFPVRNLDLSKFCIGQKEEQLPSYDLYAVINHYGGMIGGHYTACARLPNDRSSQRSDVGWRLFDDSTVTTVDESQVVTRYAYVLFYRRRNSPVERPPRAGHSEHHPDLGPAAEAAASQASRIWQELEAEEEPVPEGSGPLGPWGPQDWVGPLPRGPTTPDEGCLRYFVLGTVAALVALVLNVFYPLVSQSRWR

T2: XAP3 cloned in-frame into pACT plasmid (UniProt Q9BYM8 1-510)
T2 sequence (looked up): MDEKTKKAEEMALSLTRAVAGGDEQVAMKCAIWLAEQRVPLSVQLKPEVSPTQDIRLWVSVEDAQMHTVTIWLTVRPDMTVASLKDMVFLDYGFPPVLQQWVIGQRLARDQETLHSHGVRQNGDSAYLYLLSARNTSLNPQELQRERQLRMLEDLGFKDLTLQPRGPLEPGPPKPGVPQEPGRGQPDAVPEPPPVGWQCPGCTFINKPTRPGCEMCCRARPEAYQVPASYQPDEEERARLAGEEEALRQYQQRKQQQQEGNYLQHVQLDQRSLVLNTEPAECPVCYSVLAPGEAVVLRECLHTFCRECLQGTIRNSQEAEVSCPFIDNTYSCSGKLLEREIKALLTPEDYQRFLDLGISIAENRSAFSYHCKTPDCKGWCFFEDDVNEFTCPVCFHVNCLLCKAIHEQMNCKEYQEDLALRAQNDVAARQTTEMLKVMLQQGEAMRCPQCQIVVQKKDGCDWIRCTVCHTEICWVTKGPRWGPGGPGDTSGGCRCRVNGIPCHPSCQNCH


Key:
[1] = biological target: T1, USP19 cloned in-frame into pACT plasmid; assay: cell-based or functional assay
[2] = biological target: T2, XAP3 cloned in-frame into pACT plasmid; assay: cell-based or functional assay
[3] = biological target: T2, XAP3 cloned in-frame into pACT plasmid; assay: mammalian two-hybrid (firefly luciferase) in L132 cells
Experimental: In order to confirm the interactions detected using the yeast two-hybrid system and determine that the interaction can take place in a biologically relevant model, the Checkmate Mammalian Two-Hybrid System (Promega, Cat no. E2440) was used. Full length FKBPL and a variety of FKBPL mutants were cloned ‘in-frame’ into pBIND plasmid according to manufacturer's instructions. XAP3 and USP19 were cloned ‘in-frame’ into pACT plasmid according to manufacturer's instructions. 2×10⁴ L132 cells were plated in triplicate into a 96 well plate for each transfection condition and incubated overnight at 37° C. with MEM containing 10% FCS. FKBPL, XAP3 and USP19 plasmids were transfected into cells using Lipofectamine Plus (Invitrogen, Cat no.) and incubated at 37° C. for 24 h. The plate was allowed to equilibrate to room temperature then 75 μl room temperature Dual-Glo Luciferase Reagent (Promega, Cat no. E2920) was added to each well, mixed thoroughly and wrapped in tinfoil. After 15 minutes incubation at room temperature, the Firefly luminescence was measured using a GENios platereader (Tecan). […] After 15 minutes incubation at room temperature, the Renilla luminescence was measured.
Following correction, increased firefly luminescence over self-activations controls indicated a positive interaction between the proteins.

Binder | induction of firefly luminescence [1] | induction of firefly luminescence [2] | binding result [3]
Full length FKBPL cloned in-frame into pBIND plasmid (other, not shown: large carriers) METPPVNTIGEKDTSQPQQEWEKNLRENLDSVIQIRQQPRDPPTETLELEVSPDPASQILEHTQGAEKLVAELEGDSHKSHGSTSQMPEALQASDLWYCPDGSFVKKIVIRGHGLDKPKLGSCCRVLALGFPFGSGPPEGWTELTMGVGPWREETWGELIEKCLESMCQGEEAELQLPGHSGPPVRLTLASFTQGRDSWELETSEKEALAREERARGTELFRAGNPEGAARCYGRALRLLLTLPPPGPPERTVLHANLAACQLLLGQPQLAAQSCDRVLEREPGHLKALYRRGVAQAALGNLEKATADLKKVLAIDPKNRAAQEELGKVVIQGKNQDAGLAQGLRKMFG | 10 fold | 20 fold | –
FKBPLΔ200 (other, not shown: large carriers) METPPVNTIGEKDTSQPQQEWEKNLRENLDSVIQIRQQPRDPPTETLELEVSPDPASQILEHTQGAEKLVAELEGDSHKSHGSTSQMPEALQASDLWYCPDGSFVKKIVIRGHGLDKPKLGSCCRVLALGFPFGSGPPEGWTELTMGVGPWREETWGELIEKCLESMCQGEEAELQLPGHSGPPVRLTLASFTQGRDSWE | – | – | no binding

Reference: patent publication US20120115830A1 (QUEEN S UNIVERSITY OF BELFAST, published 2012)
